In the supplement of paper PMC7877785:
± gives the uncertainty stated by the source.

Experiment: self-splicing fitness, log relative to wild type (ln ratio); higher = more splicing; Tetrahymena group I intron in knt gene, E. coli kanamycin selection, DiMSum; sequences stand for … in CUCUCU…GGAGGGAAAAGUUAUCAGGCAUGCACCUGGUAGCUAGUCUUUAAACCAAUAGAUUGCAUCGGUUUAAAAGGCAAGACCGUCAAAUUGCGGGAAAGGGGUCAACAGCCGUUCAGUACCAAGUCUCAGGGGAAACUUUGAGAUGGCCUUGCAAAGGGUAUGGUAAUAAGCUGACGGACAUGGUCCUAACCACGCAGCCAAGUCCUAAGUCAACAGAUCUUCUGUUGAUAUGGAUGCAGUUCACAGACUAAAUGUCGGUCGGGGAAGAUGUAUUCUUCUCAUAAGAUAUAGUCGGACCUCUCCUUAAUGGGAGCUAGCGGAUGAAGUGAUGCAACACUGGAGCCGCUGGGAACUAAUUUGUAUGCGAAAGUAUAUUGAUUAGUUUUGGAGUACUCGUGGUCG
Outline: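 Fitness was computed with DiMSum as the error-weighted combination of replicate fold changes, kanamycin versus none, each normalised to wild type. The library randomised all eight intron nucleotides of the P1ex region, with the intron placed in the knt kanamycin-resistance gene on pET-22b(+) in E. coli BL21(DE3). Six replicate transformations were grown overnight at 37°C or 30°C on LB agar with or without 25 μg/mL kanamycin, plus 100 μg/mL carbenicillin, 50 μM IPTG and 0.2% rhamnose. Pooled colonies were amplicon-sequenced on an Illumina HiSeq 2500.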

| Sequence | self-splicing fitness (ln) (30 °C) | self-splicing fitness (ln) (37 °C) |
| --- | --- | --- |
| GGGCAGCAAUAUUACGCCCU | -2.78 ± 0.4 | – |
| AGGCAGCAAUAUUACGUAUC | -2.26 ± 0.16 | -0.296 ± 0.12 |
| GAACAGCAAUAUUACGUGAG | -0.394 ± 0.031 | -0.235 ± 0.053 |
| AACUAGCAAUAUUACGUCGC | -2.63 ± 0.11 | -1.08 ± 0.14 |
| CUCUAGCAAUAUUACGCGUG | -3.84 ± 0.22 | -3.01 ± 0.19 |
| AAGGAGCAAUAUUACGACAU | -2.282 ± 0.02 | -1.6 ± 0.037 |
| CAGCAGCAAUAUUACGCCUG | -3.7 ± 0.22 | -2.35 ± 0.21 |
| GAACAGCAAUAUUACGAUAG | -3.6 ± 0.14 | -0.972 ± 0.094 |
| ACGAAGCAAUAUUACGGGUC | -4.49 ± 0.29 | -2.34 ± 0.23 |
| UGGAAGCAAUAUUACGCGAA | -1.68 ± 0.16 | -1.03 ± 0.15 |
| GAACAGCAAUAUUACGGAUA | -2.51 ± 0.13 | -1.28 ± 0.12 |
| CCAUAGCAAUAUUACGUGGC | -4.63 ± 0.29 | -2.43 ± 0.24 |
| CCUCAGCAAUAUUACGUUAG | -3.27 ± 0.15 | -2.14 ± 0.14 |
| GGGUAGCAAUAUUACGAGUA | – | 0.307 ± 0.22 |
| CACGAGCAAUAUUACGAUUU | -3.18 ± 0.18 | -1.99 ± 0.13 |
| GUCAAGCAAUAUUACGUGAA | -1.01 ± 0.072 | 0.556 ± 0.083 |
| CUAAAGCAAUAUUACGGUAU | -3.53 ± 0.16 | -2.58 ± 0.17 |
| UCUGAGCAAUAUUACGAAAC | -2.45 ± 0.31 | – |
| UAGCAGCAAUAUUACGACAU | -1.604 ± 0.013 | -0.682 ± 0.033 |
| CGAGAGCAAUAUUACGUUCU | -3.16 ± 0.13 | -2.83 ± 0.17 |
| GCAGAGCAAUAUUACGGCUU | -1.92 ± 0.27 | -0.671 ± 0.21 |
| UACAAGCAAUAUUACGGGUU | -2.8 ± 0.091 | -1.63 ± 0.097 |
| CACGAGCAAUAUUACGCGGU | -3.13 ± 0.15 | -3.5 ± 0.24 |
| UGCAAGCAAUAUUACGAUUG | -1.93 ± 0.14 | -1.55 ± 0.12 |
| CGAUAGCAAUAUUACGGGGA | – | -2.27 ± 0.28 |

| Sequence | self-splicing fitness (ln) (30 °C) | self-splicing fitness (ln) (37 °C) |
| --- | --- | --- |
| CUGCAGCAAUAUUACGUGCG | -1.67 ± 0.093 | -1.26 ± 0.11 |
| GAGGAGCAAUAUUACGGUUC | – | -3.2 ± 0.35 |
| GACAAGCAAUAUUACGCCGA | -1.19 ± 0.12 | -0.179 ± 0.14 |
| GUCUAGCAAUAUUACGGCUA | – | -2.64 ± 0.33 |
| AUUUAGCAAUAUUACGGUAU | -1.51 ± 0.088 | -0.753 ± 0.089 |
| ACUUAGCAAUAUUACGGCAA | -0.92 ± 0.16 | -1.31 ± 0.23 |
| CGUAAGCAAUAUUACGUUAA | -3.03 ± 0.23 | -2.47 ± 0.29 |
| ACGCAGCAAUAUUACGGAUC | -1.86 ± 0.093 | -0.813 ± 0.13 |
| GUUAAGCAAUAUUACGGCGA | -0.403 ± 0.096 | -0.122 ± 0.11 |
| UGUAAGCAAUAUUACGACUG | -0.779 ± 0.11 | -1.14 ± 0.14 |
| UUCCAGCAAUAUUACGGUAA | -0.236 ± 0.087 | -0.0663 ± 0.086 |
| UACUAGCAAUAUUACGUCCA | -0.715 ± 0.1 | -0.49 ± 0.13 |
| AUACAGCAAUAUUACGCCCU | -0.0578 ± 0.06 | -0.247 ± 0.072 |
| AUGAAGCAAUAUUACGGUCC | -0.305 ± 0.12 | 0.363 ± 0.14 |
| CUUCAGCAAUAUUACGAAUC | -1.04 ± 0.2 | -1.06 ± 0.19 |
| UGUUAGCAAUAUUACGCGAC | -3.75 ± 0.4 | -1.59 ± 0.5 |
| UCUAAGCAAUAUUACGGAAG | -4.81 ± 0.46 | -1.49 ± 0.17 |
| GUGAAGCAAUAUUACGUAAA | -1.41 ± 0.086 | -1.51 ± 0.12 |
| UCUAAGCAAUAUUACGGGUU | -3.97 ± 0.17 | -2.93 ± 0.19 |
| AACAAGCAAUAUUACGCUAU | -2.25 ± 0.075 | -1.52 ± 0.074 |
| UAUAAGCAAUAUUACGUCGA | -1.56 ± 0.14 | -0.891 ± 0.16 |
| GCGGAGCAAUAUUACGAGUG | -2.86 ± 0.34 | -2.71 ± 0.48 |
| CAAGAGCAAUAUUACGCGCC | -3.44 ± 0.37 | -1.74 ± 0.42 |
| AUUCAGCAAUAUUACGCAUU | -0.534 ± 0.076 | -0.427 ± 0.095 |
| UGUUAGCAAUAUUACGUGCC | -2.05 ± 0.17 | -0.583 ± 0.21 |
